Data as given in patent US20180022819A1 (APTEVO RESEARCH AND DEVELOPMENT, published 2018).

Target: prostate-specific membrane antigen (PSMA) (human, UniProt Q04609 1-750)
Assay: cell-based or functional assay

Sequence of prostate-specific membrane antigen (PSMA) (Q04609 whole entry): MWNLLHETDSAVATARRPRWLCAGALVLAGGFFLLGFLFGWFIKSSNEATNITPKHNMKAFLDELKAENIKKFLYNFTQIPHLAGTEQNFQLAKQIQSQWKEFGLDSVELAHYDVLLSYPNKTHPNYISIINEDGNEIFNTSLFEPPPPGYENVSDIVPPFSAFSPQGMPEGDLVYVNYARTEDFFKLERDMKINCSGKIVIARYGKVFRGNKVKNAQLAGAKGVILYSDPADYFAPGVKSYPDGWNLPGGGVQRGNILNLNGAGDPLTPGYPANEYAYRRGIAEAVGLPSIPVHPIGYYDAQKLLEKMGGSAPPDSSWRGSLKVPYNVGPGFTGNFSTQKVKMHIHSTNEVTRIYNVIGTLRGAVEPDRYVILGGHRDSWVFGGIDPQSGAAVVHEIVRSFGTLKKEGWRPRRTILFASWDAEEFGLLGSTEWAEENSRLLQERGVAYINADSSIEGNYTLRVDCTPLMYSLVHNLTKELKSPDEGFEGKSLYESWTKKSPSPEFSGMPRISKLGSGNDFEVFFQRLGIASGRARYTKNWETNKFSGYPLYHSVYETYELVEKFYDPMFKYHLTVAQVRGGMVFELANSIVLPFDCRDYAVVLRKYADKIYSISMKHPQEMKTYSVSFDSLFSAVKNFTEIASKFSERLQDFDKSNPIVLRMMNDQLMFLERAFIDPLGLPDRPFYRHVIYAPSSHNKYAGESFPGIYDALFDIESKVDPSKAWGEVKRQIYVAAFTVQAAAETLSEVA

B1: humanized TSC249 (huVL-VH#2 107-1A4 scFv-Fc-DRA222 scFv) (bispecific antibody)
chain: DIQMTQSPSAMSASVGDRVTITCRASKSISKYLAWFQQKPGKVPKLRIHSGSTLQSGVPSRFSGSGSGTEFTLTISSLQPEDFATYYCQQHIEYPWTFGQGTKVEIKRGGGGSGGGGSGGGGSQVQLVQSGAEVKKPGASVKVSCKASGYTFTDYYMHWVRQAPGQGLEWMGYFNPYNDYTRYAQKFQGRVTMTRDTSISTAYMELSSLRSDDTAVYYCARSDGYYDAMDYWGQGTTVTVSSSEPKSSDKTHTCPPCPAPEAAGAPSVFLFPPKPKDTLMISRTPEVTCVVVDVSHEDPEVKFNWYVDGVEVHNAKTKPREEQYNSTYRVVSVLTVLHQDWLNGKAYACAVSNKALPAPIEKTISKAKGQPREPQVYTLPPSRDELTKNQVSLTCLVKGFYPSDIAVEWESNGQPENNYKTTPPVLDSDGSFFLYSKLTVDKSRWQQGNVFSCSVMHEALHNHYTQKSLSLSPGQRHNNSSLNTGTQMAGHSPNSQVQLVESGGGVVQPGRSLRLSCKASGYTFTRSTMHWVRQAPGQGLEWIGYINPSSAYTNYNQKFKDRFTISADKSKSTAFLQMDSLRPEDTGVYFCARPQVHYDYNGFPYWGQGTPVTVSSGGGGSGGGGSGGGGSAQDIQMTQSPSSLSASVGDRVTMTCSASSSVSYMNWYQQKPGKAPKRWIYDSSKLASGVPARFSGSGSGTDYTLTISSLQPEDFATYYCQQWSRNPPTFGGGTKLQITSSS
- EC50 of % live cells, GFP-LNCaP growth inhibition assay, 4 days with primary human T-cells (3:1): 15 pM
- EC50 of % specific lysis, 51Cr release assay, 4 hours, untreated 22Rv1 target cells with donor T-cells (5:1): 0.8 pM
